# Measured values as given in patent US9206246B2, “Heparin/heparan sulfate-dependent inhibitors of activated protein C and uses thereof in treating hemophilic disorders” (Academia Sinica, priority 2012, dated 2015).
# B1: protein C inhibitor: plasma APC inhibitor belonging to the serpin family (protein, UniProt P05154 26-406, looked up)
# Plasma serine protease …: EMKKRVEDLHVGATVAPSSRRDFTFDLYRALASAAPSQSIFFSPVSISMSLAMLSLGAGSSTKMQILEGLGLNLQKSSEKELHRGFQQLLQELNQPRDGFQLSLGNALFTDLVVDLQDTFVSAMKTLYLADTFPTNFRDSAGAMKQINDYVAKQTKGKIVDLLKNLDSNAVVIMVNYIFFKAKWETSFNHKGTQEQDFYVTSETVVRVPMMSREDQYHYLLDRNLSCRVVGVPYQGNATALFILPSEGKMQQVENGLSEKTLRKWLKMFKKRQLELYLPKFSIEGSYQLEKVLPSLGISNVFTSHADLSGISNHSNIQVSEMVHKAVVEVDESGTRAAAATGTIFTFRSARLNSQRLVFNRPFLMFIVDNNILFLGKVNRP
# Experiments:
# [1] = Heparin binding assay (HiTrap Heparin column, NaCl gradient); conditions: data not shown
# Description: A: 70 μg of DrKIn-I in 0.1 ml equilibrating buffer (20 mM Tris-HCl, pH 8.0) was applied to a 5 ml HiTrap Heparin column and eluted with a 50 ml gradient from 0.0-1.0 M NaCl. The salt concentration corresponding to the elution peak was determined to be 0.95 M. B, Binding of DrKIn-I (0.78, 1.56, 2.34, 3.13, 4.68 and 6.25 nM) to immobilized APC was assessed in buffer containing 10 mM HEPES, 0.15 M NaCl, 3 mM EDTA and 0.05% P20 at a flow rate of 60 μl/min at 25° C. […] The thin lines represent the global fit to the response data. […] Results shown are means±SD of three experiments. Representative binding traces are shown.
# [2] = target: T1, human activated protein C (Homo sapiens, UniProt P04070); assay: Inhibition of APC amidolytic activity (Spectrozyme PCa chromogenic substrate); format: biochemical
# T1 construct: purchased Haematologic Technologies
# Description: B: Dose-response curves of APC (10 nM) inhibition by DrKIn-I in the absence (◯) and presence (●) of 0.1 U/ml heparin. C: To determine the minimum concentration of heparin required for the potentiation APC inhibition, the activity of APC (20 nM) was measured after the addition of DrKIn-I (20 nM) and varying concentrations of heparin (0-1000 mU/ml). D: To assess the ability of heparan sulfate and the minimum length of heparan sulfate required to potentiate DrKIn-I-mediated APC inhibition, the amidolytic activity of APC was determined in the presence of DrKIn-I (20 nM) and different lengths of heparan sulfate chains (10 μg/ml each). E, Time course of FVa inactivation by APC (1 nM) was assessed in the absence (●) or presence (▪) of 5 nM DrKIn-I, or in the presence of 5 nM DrKIn-I supplemented with 0.1 U/ml heparin (▴), as described in “Materials and methods”. F, The effect of DrKIn-I (0-250 nM) and/or heparin (0.1 U/ml) on APC-mediated FVa inactivation was determined after 10 minutes of incubation at 37° C. with APC (5 nM). Results shown are means±SD of three experiments.
# All inhibition assays were performed in 96-wells microtiter plates in 25 mM Tris-HCl (pH 7.4), 150 mM NaCl, 2.5 mM CaCl2 and 5 mg/ml BSA. For comparison between DrKIn-I and DrKIn-II, the amidolytic activity of 10 nM APC, with or without 0.1 U/ml heparin, was assayed in the presence or absence of equal molar concentrations of DrKIn-I or DrKIn-II. Immediately after the addition of APC, Spectrozyme PCa was added and the rates of p-nitroaniline release were monitored at 405 nm for 10 minutes at 37° C. For dose response curves, APC was mixed with different concentrations of DrKIn-I in the presence or absence of heparin. The final concentrations were as follows: APC (10 nM), heparin (0.1 U/ml) and DrKIn-I (0-100 nM in the presence of heparin and 0-12800 nM in the absence of heparin). Dose-response curves were fitted using GraphPad Prism (GraphPad Software). In other inhibition experiments, varying concentrations of heparin ([…]) or different lengths of heparan sulfate chains (10 μg/ml) were added to equimolar concentrations of APC and DrKIn-I (20 nM each). In all the inhibition experiments, Spectrozyme PCa was added to a final concentration of 0.2 mM. Changes in absorbance were measured using SpectraMax M2^e Microplate Reader (Molecular Devices).
# plasmin = assay: Euglobulin clot lysis assay; format: biochemical
# APC [3] = target: T2, APC (Homo sapiens, UniProt P04070); assay: APC inhibition by recombinant DrKIn-I wild type and mutants (S-2366 chromogenic substrate); format: biochemical; conditions: APC 20 nM, S-2366 0.4 mM
# Text: A: amino acid alignment of the C-terminal regions of the wild-type DrKIn-I peptide and three mutants, which were generated by either deleting or mutating (alanine substitution; denoted by bold letters) one or both of the C-terminus heparin binding motifs. Underlined amino acids are the putative heparin binding motifs. B: SDS-PAGE analysis of the wild-type and mutant DrKIn-I peptides. Wild-type: SEQ ID NO:3. Mutant 1: SEQ ID NO:4. Mutant 2: SEQ ID NO:5. Mutant 3: SEQ ID NO:6. C-D: Inhibitory effect of DrKIn-I wild type (●), mutant 1 (▴), mutant 2 (▾) and mutant 3 (▪) on APC (20 nM) in the presence (C) or absence (D) of heparan sulfate (10 μg/ml). Activity of APC without the addition of inhibitors was considered as 100%.
# The wild-type DrKIn-I and the mutants at various concentrations were mixed with APC (20 nM) in the presence of heparin or heparan sulfate (10 μg/ml). After 3 minutes of incubation, a chromogenic substrate S-2366 (0.4 mM) was added and the rate of p-nitroaniline release was monitored at 405 nm for 10 minutes at 37° C. […] On the other hand, Mutants 1 and 2 inhibit APC in the presence of heparin.
# Target sequence in this assay (P04070 212-450 limits assumed): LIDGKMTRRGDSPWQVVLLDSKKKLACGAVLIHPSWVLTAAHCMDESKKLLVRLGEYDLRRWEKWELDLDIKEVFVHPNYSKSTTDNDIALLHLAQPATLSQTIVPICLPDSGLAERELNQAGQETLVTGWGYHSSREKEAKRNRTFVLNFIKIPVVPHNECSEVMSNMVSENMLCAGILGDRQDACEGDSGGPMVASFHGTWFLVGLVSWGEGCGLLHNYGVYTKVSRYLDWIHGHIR
# Target sequence in this assay (P04070 43-197 limits assumed): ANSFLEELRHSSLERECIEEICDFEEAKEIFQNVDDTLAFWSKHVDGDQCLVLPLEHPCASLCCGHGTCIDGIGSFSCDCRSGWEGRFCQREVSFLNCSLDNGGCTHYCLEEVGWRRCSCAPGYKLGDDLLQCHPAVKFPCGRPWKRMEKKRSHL
# APC [4] = target: T2, APC; conditions: in the absence of heparin; cited from earlier work
# Target sequence in this assay (P04070 212-461 limits assumed): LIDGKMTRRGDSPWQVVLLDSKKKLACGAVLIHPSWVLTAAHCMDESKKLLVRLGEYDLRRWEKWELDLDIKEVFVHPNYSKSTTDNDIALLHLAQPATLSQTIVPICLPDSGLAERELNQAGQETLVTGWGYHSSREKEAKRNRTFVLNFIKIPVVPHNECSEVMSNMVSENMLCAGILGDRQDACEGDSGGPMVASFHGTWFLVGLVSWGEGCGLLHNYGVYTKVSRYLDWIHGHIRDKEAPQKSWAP
# Target sequence in this assay (P04070 43-197 limits assumed): as the sequence (P04070 43-197 limits assumed) above
# T1 sequence (P04070 212-450 limits assumed): as the sequence (P04070 212-450 limits assumed) above
# T1 sequence (P04070 43-197 limits assumed): as the sequence (P04070 43-197 limits assumed) above
molecule,measurement,setting,value
DrKIn-II (HDRPTFCNLAPESGRCRAHLRRIYYNLESNKCEVFFYGGCGGNDNNFSTWDECRHTCVGK),affinity towards heparin column,[1],no affinity towards heparin column
same,inhibitory activity against APC in the absence of heparin,"[2]; 10 nM inhibitor, 10 nM APC, no heparin",little inhibitory activity against APC
same,decrease of APC activity (inhibition of APC amidolytic activity),"[2]; equimolar inhibitor and APC (10 nM each), 0.1 U/ml heparin, Spectrozyme PCa 0.2 mM",~20%
same,inhibitory activity against APC,[2]; summary statement in discussion,no inhibitory activity against APC
aprotinin [reference compound],prolongation of euglobulin clot lysis time,plasmin; 20 nM inhibitor,~9 h
same,prolongation of euglobulin clot lysis time,plasmin; 100 nM inhibitor,more than 16 hours
Mutant 1: Recombinant DrKIn-I mutant R50A/K51A/K52A lacking one of the two heparin binding sites (CGGNDNNFETAAACRQTCGAPRKGRPT),APC inhibition in the presence of heparin,APC [3],inhibit APC
Mutant 2: Recombinant DrKIn-I deletion mutant Δ60-66 lacking one of the two heparin binding sites (CGGNDNNFETRKKCRQTCGA),APC inhibition in the presence of heparin,APC [3],inhibit APC
heparin [reference compound],effect of heparin alone on APC activity,"[2]; heparin alone 0.1 U/ml, regardless of the type of substrate (Spectrozyme PCa or FVa)",did not alter the activity of APC
B1,second order rate constant of APC inhibition,APC [4],2500 M⁻¹ s⁻¹
